Laboratory results from the supplement of paper PMC9876800.

System: peptide library, one residue held at a place counted from the S/T acceptor
Test: relative phosphorylation of the sub-library (ratio to the mean residue at this position); higher = residue favoured
Procedure, shortened: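 Each biotinylated degenerate peptide sub-library fixed one residue at one position around a central Ser/Thr and was incubated with a purified recombinant kinase, a human or orthologue construct, in 384-well plates. The 90 min reactions, under kinase-specific conditions, contained 50 μM peptide and 50 μM ATP spiked with γ-32P-ATP. Phosphorylation was read by phosphorimaging spots on streptavidin membranes and quantifying them by densitometry. Relative sub-library phosphorylation expresses each value as a ratio to the mean residue at that position.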

CAMK2B, construct: Full length, human, sequence (Q13554 whole entry, looked up): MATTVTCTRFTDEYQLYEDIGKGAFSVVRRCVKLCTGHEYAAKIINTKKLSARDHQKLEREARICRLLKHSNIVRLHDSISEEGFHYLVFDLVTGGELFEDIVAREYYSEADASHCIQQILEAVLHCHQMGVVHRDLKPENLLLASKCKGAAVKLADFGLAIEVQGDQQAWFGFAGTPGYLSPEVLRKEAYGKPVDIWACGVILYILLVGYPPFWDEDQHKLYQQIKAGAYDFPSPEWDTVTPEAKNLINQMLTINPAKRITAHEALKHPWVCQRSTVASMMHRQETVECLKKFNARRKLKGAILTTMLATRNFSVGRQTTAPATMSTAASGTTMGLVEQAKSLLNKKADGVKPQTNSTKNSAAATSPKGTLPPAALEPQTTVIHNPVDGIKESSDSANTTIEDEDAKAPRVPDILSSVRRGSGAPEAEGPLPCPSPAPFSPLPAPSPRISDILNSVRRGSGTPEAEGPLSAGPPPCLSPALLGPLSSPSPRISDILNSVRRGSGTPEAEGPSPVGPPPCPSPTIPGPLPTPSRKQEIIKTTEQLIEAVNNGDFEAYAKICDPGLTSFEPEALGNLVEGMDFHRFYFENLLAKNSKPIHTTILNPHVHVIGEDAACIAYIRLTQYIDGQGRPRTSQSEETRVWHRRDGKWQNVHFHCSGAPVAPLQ
MARK2, construct: Full length, human, sequence (Q7KZI7 whole entry, looked up): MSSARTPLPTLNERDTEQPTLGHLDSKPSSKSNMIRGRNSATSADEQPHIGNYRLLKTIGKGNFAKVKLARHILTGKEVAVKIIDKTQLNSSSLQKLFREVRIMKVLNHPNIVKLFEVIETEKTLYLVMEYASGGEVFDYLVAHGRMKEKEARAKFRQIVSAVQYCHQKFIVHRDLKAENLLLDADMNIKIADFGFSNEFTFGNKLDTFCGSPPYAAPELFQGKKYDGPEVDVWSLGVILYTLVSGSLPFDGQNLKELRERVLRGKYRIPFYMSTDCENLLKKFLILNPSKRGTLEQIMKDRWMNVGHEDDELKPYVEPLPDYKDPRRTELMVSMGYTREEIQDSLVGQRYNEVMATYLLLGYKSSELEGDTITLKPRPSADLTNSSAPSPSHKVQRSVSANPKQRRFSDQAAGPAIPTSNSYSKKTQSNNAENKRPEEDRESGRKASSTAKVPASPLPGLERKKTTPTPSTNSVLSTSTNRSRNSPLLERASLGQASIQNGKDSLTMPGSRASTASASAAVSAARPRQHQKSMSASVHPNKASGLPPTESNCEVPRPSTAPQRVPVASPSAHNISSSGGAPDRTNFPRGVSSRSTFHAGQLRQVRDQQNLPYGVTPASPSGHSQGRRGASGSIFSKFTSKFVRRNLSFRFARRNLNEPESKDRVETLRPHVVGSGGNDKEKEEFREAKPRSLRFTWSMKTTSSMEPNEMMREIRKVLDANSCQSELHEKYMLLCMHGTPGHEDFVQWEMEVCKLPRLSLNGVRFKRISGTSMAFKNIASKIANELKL

MARK2, construct: Full length, human (from UniProt Q7KZI7)
relative phosphorylation
Conditions	at +1	at +2	at +3	at +4	at -1	at -2	at -3	at -4	at -5
A fixed	0.661	0.734	0.723	0.42	1.08	2	0.814	1.24	1.05
D fixed	0.564	0.774	2.49	0.401	0.73	0.399	0.458	0.956	0.844
E fixed	0.799	1.09	0.957	0.353	0.654	0.338	0.52	0.924	0.899
F fixed	0.754	0.856	0.934	0.625	0.534	1.35	0.897	0.947	1.07
G fixed	0.6	0.488	0.517	0.388	2.43	1.32	0.775	1.16	0.977
H fixed	0.796	1.06	1.35	0.44	0.834	1.29	1.3	1.11	0.947
I fixed	1.16	0.984	0.682	3.42	0.568	0.511	0.548	0.635	0.932
K fixed	0.738	0.476	0.474	0.271	1.45	0.982	1.86	1.3	1.16
L fixed	1.22	1.16	0.965	5.46	0.755	0.456	0.56	0.727	1.51
M fixed	2.28	1.12	0.896	1.64	0.936	0.711	0.911	0.911	1.11
N fixed	1.12	1.15	2.48	0.37	1.05	0.698	0.734	1.01	0.846
P fixed	0.387	0.616	0.222	0.3	1.24	0.475	0.839	0.884	0.759
Q fixed	1.81	1.2	0.956	0.263	1.26	0.619	0.785	0.933	0.8
R fixed	0.846	0.624	0.454	0.192	1.21	0.926	3.26	1.35	1.3
V fixed	1.52	1.02	0.675	1.55	0.831	0.677	0.544	0.687	0.754
W fixed	0.852	2.63	1.14	0.444	0.674	2.61	1.36	1.28	1.14
Y fixed	0.898	1.02	1.08	0.464	0.77	1.64	0.842	0.947	0.909
pThr fixed	1.29	0.81	0.381	0.287	0.37	0.438	0.518	0.756	0.656
pTyr fixed	0.584	0.583	0.681	0.283	0.688	0.498	0.656	0.746	0.791

CAMK2B, construct: Full length, human (from UniProt Q13554)
relative phosphorylation
Conditions	at +1	at +2	at +3	at +4	at -1	at -2	at -3	at -4	at -5
A fixed	0.454	0.673	1.07	0.895	0.744	1.02	0.589	0.903	0.883
D fixed	0.842	4.46	2.37	2.5	1.57	0.86	0.527	0.849	0.702
E fixed	1.45	3.53	2.59	2.45	1.32	1.05	0.627	1.21	0.659
F fixed	2.27	0.366	0.6	0.619	0.736	0.523	0.58	0.852	1.19
G fixed	0.573	0.828	1.26	1.09	1.06	1.46	0.774	1.04	0.836
H fixed	0.758	0.895	0.881	0.893	1.15	1.1	1.03	1.04	0.803
I fixed	1.52	0.405	0.575	0.529	0.482	0.336	0.325	0.729	1.08
K fixed	0.457	0.32	0.489	0.459	1.01	0.848	2.02	1.29	0.791
L fixed	1.1	0.332	0.729	0.506	0.738	0.367	0.382	0.707	1.71
M fixed	1.52	0.426	0.648	0.612	0.948	1.01	0.652	1.07	1.12
N fixed	0.837	1.3	1.13	1.05	1.48	1.38	0.929	0.983	0.749
P fixed	0.295	0.525	0.932	1.43	1.45	0.471	1.11	1.03	1.05
Q fixed	1.43	1.1	1.14	1.02	1.41	3.49	1.22	1.14	0.893
R fixed	0.566	0.381	0.438	0.458	0.795	1.06	4.44	1.3	1.16
V fixed	1.42	0.467	0.62	0.638	0.592	0.388	0.365	0.815	1.2
W fixed	0.534	0.397	0.701	0.983	0.486	0.992	0.758	0.958	1.16
Y fixed	0.988	0.593	0.827	0.882	1.03	0.651	0.679	1.09	1.03
pThr fixed	1.72	1.39	1.97	3.94	0.586	0.581	0.708	0.806	0.783
pTyr fixed	1.76	4.63	1.88	2.72	1.75	0.651	0.664	0.835	0.902
